Experimental data reported in EP4696329A1 (BioRay Pharmaceutical Co., Ltd., dated 2024).
Like-named read-outs stand apart in the source and are kept apart here.

What was measured:
[1] = biological target: T1, human ROR1 expressed on cells (MDA-MB-231, Jeko-1, PA-1, HCC1187) (human, UniProt Q01973 30-937); experiment: cell-based or functional assay
[2] = biological target: T2, human ROR2 protein (hROR2, Kactus Biosystems, Cat. No. ROR-HM402) (human, UniProt Q01974 34-403, limits assumed); experiment: ELISA, plate coated with hROR2
[3] = biological target: T3, human ROR1 protein (recombinant ROR1 antigen, Kactus Biosystems) (human, UniProt Q01973 30-406, limits assumed); experiment: binding to ROR1 (column 'Binding to ROR1'; method not described)
[4] = biological target: T3, human ROR1 protein (recombinant ROR1 …); experiment: BLI (Octet R8), antibody captured on AHC sensor, ROR1 antigen as analyte
[5] = biological target: T1, human ROR1 expressed on cells …; experiment: flow cytometry on MDA-MB-231 cells
[6] = biological target: T1, human ROR1 expressed on cells …; experiment: flow cytometry on Jeko-1 cells
[7] = biological target: T1, human ROR1 expressed on cells …; experiment: flow cytometry on PA-1 cells
[8] = biological target: T2, human ROR2 protein (hROR2, Kactus …); experiment: ELISA, plate coated with hROR2; remark: listed apart in the source
[9] = biological target: T3, human ROR1 protein (recombinant ROR1 …); experiment: BLI (Octet R8), antibody captured on AHC sensor, ROR1 antigen as analyte; remark: listed apart in the source

T2 sequence (Q01974 34-403 limits assumed): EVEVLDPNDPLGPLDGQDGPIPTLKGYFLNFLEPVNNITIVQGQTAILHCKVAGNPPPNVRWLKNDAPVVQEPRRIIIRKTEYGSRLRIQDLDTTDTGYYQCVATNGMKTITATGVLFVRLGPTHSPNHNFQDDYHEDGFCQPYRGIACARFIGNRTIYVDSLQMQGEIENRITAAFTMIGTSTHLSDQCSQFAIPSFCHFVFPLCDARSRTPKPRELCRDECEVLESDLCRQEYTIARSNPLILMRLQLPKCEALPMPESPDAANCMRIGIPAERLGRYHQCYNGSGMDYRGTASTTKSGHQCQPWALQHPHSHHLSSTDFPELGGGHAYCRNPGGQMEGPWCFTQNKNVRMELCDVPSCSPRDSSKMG
T3 sequence (Q01973 30-406 limits assumed): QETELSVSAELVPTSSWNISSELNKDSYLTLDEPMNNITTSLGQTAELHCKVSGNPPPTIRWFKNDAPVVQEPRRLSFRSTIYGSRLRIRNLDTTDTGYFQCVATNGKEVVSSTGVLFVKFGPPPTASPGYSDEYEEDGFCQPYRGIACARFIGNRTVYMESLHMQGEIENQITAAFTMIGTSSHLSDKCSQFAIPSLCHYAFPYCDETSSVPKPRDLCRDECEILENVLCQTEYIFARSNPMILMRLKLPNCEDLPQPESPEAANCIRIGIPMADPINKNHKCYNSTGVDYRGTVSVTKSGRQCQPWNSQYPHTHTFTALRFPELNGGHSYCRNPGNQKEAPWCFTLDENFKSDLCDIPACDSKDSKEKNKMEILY
T1 sequence (Q01973 30-937 limits assumed): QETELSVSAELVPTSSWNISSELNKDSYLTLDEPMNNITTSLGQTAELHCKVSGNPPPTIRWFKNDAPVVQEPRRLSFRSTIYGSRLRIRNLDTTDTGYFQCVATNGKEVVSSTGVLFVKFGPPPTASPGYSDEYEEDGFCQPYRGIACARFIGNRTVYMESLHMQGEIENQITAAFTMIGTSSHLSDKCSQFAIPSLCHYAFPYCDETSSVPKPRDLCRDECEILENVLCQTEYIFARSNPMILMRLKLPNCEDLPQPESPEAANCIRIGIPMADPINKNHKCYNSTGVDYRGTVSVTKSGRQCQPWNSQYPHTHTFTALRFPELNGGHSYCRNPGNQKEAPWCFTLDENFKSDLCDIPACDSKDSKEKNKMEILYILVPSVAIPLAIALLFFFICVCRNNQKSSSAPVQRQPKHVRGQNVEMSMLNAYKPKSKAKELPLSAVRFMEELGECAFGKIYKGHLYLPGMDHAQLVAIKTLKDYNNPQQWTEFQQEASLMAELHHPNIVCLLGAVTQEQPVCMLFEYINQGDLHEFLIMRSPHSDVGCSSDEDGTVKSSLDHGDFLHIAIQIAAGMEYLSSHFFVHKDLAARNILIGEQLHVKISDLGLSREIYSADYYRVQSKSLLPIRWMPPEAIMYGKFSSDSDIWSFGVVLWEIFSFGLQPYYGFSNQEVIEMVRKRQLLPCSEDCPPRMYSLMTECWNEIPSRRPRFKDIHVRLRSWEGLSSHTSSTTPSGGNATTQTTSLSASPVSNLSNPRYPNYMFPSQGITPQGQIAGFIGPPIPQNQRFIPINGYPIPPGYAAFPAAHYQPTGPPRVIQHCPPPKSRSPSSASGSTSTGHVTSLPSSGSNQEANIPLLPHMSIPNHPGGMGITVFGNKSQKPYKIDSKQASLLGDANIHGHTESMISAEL

B1: ADC-5 (AM3-ZH3 conjugated to LD-1) (antibody, human IgG1, kappa, V domains shown)
VH: EVQLVESGGGLVQPGGSLRLSCAASGFTFSSYPMSWVRQAPGKGLEWVSSISTGASAYFPDSVKGRFTISRDNAKNSLYLQMNSLRAEDTAVYYCARITTSTWYMDVWGQGTTVTVSS
VL: DIQMTQSPSAMSASVGDRVTITCKASQDIYSYLSWFQQKPGKVPKTLIYRANRLVRGVPSRFSGSGSGQEYTLTISSLQPEDMATYYCLQYDEFPYTFGQGTKLEIKR
modifications: linker-drug LD-1 (MMAE) on cysteine sulfhydryls of reduced disulfides; average DAR between 3.7 and 4.3
- inhibitory IC50 against the proliferation of HCC1187 cells (CellTiterGlo2) [1]: 6.3 nM
- inhibitory IC50 against the proliferation of Jeko1 cells (CellTiterGlo2) [1]: 65.1 nM
- inhibitory IC50 against the proliferation of PA-1 cells (CellTiterGlo2) [1]: 17.8 nM

B2: ADC-2 (AM3-ZH3 conjugated to LD-14) (antibody, human IgG1, kappa, V domains shown)
VH: EVQLVESGGGLVQPGGSLRLSCAASGFTFSSYPMSWVRQAPGKGLEWVSSISTGASAYFPDSVKGRFTISRDNAKNSLYLQMNSLRAEDTAVYYCARITTSTWYMDVWGQGTTVTVSS
VL: DIQMTQSPSAMSASVGDRVTITCKASQDIYSYLSWFQQKPGKVPKTLIYRANRLVRGVPSRFSGSGSGQEYTLTISSLQPEDMATYYCLQYDEFPYTFGQGTKLEIKR
modifications: linker-drug LD-14 (eribulin) on cysteine sulfhydryls of reduced disulfides; average DAR between 3.7 and 4.3
- inhibitory IC50 against the proliferation of HCC1187 cells (CellTiterGlo2) [1]: 0.09 nM
- inhibitory IC50 against the proliferation of Jeko1 cells (CellTiterGlo2) [1]: 0.285 nM
- inhibitory IC50 against the proliferation of PA-1 cells (CellTiterGlo2) [1]: 0.017 nM

B3: AM3-ZH7 (antibody, human IgG1, kappa, V domains shown)
VH: EVQLVESGGGLVQPGGSLRLSCAASGFTFSSYAMSWVRQAPGKGLEWVSSISTGASAYFPDSVKGRFTISRDNAKNSLYLQMNSLRAEDTAVYYCARITTSTWYMDVWGQGTTVTVSS
VL: DIQMTQSPSAMSASVGDRVTITCKASQDIYSYLSWFQQKPGKVPKTLIYRANRLVRGVPSRFSGSGSGQEYTLTISSLQPEDMATYYCLQYDEFPYTFGQGTKLEIKR
- binding result [2]: no binding (tested: starting from 333.33 nM)
- EC50 [3]: 0.0115 µg/mL
- Kd [4]: 8.5 nM
- EC50 [5]: 0.0101 µg/mL

B4: AM3-ZH5 (antibody, human IgG1, kappa, V domains shown)
VH: EVQLVESGGGLVQPGGSLRLSCAASGFTFSSYAMSWVRQAPGKGLEWVSSISTGASAYFPDSVKGRFTISRDNAKNSLYLQMNSLRAEDTAVYYCARITTSTWYMDVWGQGTTVTVSS
VL: DIQMTQSPSAMSASVGDRVTITCKASQDIFSYLSWFQQKPGKVPKTLIYRANRLVSGVPSRFSGSGSGQEYTLTISSLQPEDMATYYCLQYDEFPYTFGQGTKLEIKR
- binding result [2]: no binding (tested: starting from 333.33 nM)
- EC50 [3]: 0.0124 µg/mL
- Kd [4]: 10 nM
- EC50 [5]: 0.0148 µg/mL

B5: AM3-ZH4 (antibody, human IgG1, kappa, V domains shown)
VH: EVQLVESGGGLVQPGGSLRLSCAASGFTFSSYAMSWVRQAPGKGLEWVSSISTGASAYFPDSVKGRFTISRDNAKNSLYLQMNSLRAEDTAVYYCARYTTSTWYHDVWGQGTTVTVSS
VL: DIQMTQSPSAMSASVGDRVTITCKASQDIYSYLSWFQQKPGKVPKTLIYRANRLVRGVPSRFSGSGSGQEYTLTISSLQPEDMATYYCLQYDEFPYTFGQGTKLEIKR
- binding result [2]: no binding (tested: starting from 333.33 nM)
- EC50 [3]: 0.0161 µg/mL
- Kd [4]: 27 nM
- EC50 [5]: 0.0163 µg/mL

B6: AM3-ZH1 (antibody, human IgG1, kappa, V domains shown)
VH: EVQLVESGGGLVQPGGSLRLSCAASGFTFSSYPMSWVRQAPGKGLEWVSSISTGASAYFPDSVKGRFTISRDNAKNSLYLQMNSLRAEDTAVYYCARYTTSTWYFDVWGQGTTVTVSS
VL: DIQMTQSPSAMSASVGDRVTITCKASQDIYSYLSWFQQKPGKVPKTLIYRANRLVRGVPSRFSGSGSGQEYTLTISSLQPEDMATYYCLQYDEFPYTFGQGTKLEIKR
- binding result [2]: binds
- EC50 [3]: 0.0127 µg/mL
- Kd [4]: 7.9 nM
- EC50 [5]: 0.0169 µg/mL

B7: AM3-ZH6 (antibody, human IgG1, kappa, V domains shown)
VH: EVQLVESGGGLVQPGGSLRLSCAASGFTFSSYAMSWVRQAPGKGLEWVSSISTGASAYFPDSVKGRFTISRDNAKNSLYLQMNSLRAEDTAVYYCARITTSTWYMDVWGQGTTVTVSS
VL: DIQMTQSPSAMSASVGDRVTITCKASQDIYSYLSWFQQKPGKVPKTLIYRANRLVGGVPSRFSGSGSGQEYTLTISSLQPEDMATYYCLQYDEFPYTFGQGTKLEIKR
- binding result [2]: no binding (tested: starting from 333.33 nM)
- EC50 [3]: 0.012 µg/mL
- Kd [4]: 11 nM
- EC50 [5]: 0.013 µg/mL

B8: H10-hVH4-hVL4 (antibody, human IgG1, kappa, V domains shown)
VH: EVQLVESGGGLVQPGGSLRLSCAASGFTFSSYAMSWVRQAPGKGLEWVSSISTGASAYFPDSVKGRFTISRDNAKNSLYLQMNSLRAEDTAVYYCARITTSTWYFDVWGQGTTVTVSS
VL: DIQMTQSPSAMSASVGDRVTITCKASQDINSYLSWFQQKPGKVPKTLIYRANRLVDGVPSRFSGSGSGQEYTLTISSLQPEDMATYYCLQYDEFPYTFGQGTKLEIKR
notes: also called H10-VH4VL4
- binding result [2]: no binding (tested: starting from 333.33 nM)
- EC50 [3]: 0.0144 µg/mL
- Kd [4]: 47 nM
- EC50 [5]: 0.0304 µg/mL

B9: ADC-3 (KIH YR8/ZH3 conjugated to LD-14) (bispecific antibody, human IgG1, kappa)
heavy 1: not shown
light 1: EIVLTQSPATLSLSPGERATLSCSASSQVSYIHWYQQKPGQAPRPWIYETSKLASGIPARFSGSGSGTDYTLTISSLEPEDFAVYYCQQWNYPLITFGQGTKLEIKRTVAAPSVFIFPPSDEQLKSGTASVVCLLNNFYPREAKVQWKVDNALQSGNSQESVTEQDSKDSTYSLSSTLTLSKADYEKHKVYACEVTHQGLSSPVTKSFNRGEC
heavy 2: not shown
light 2: DIQMTQSPSAMSASVGDRVTITCKASQDIYSYLSWFQQKPGKVPKTLIYRANRLVRGVPSRFSGSGSGQEYTLTISSLQPEDMATYYCLQYDEFPYTFGQGTKLEIKRTVAAPSVFIFPPSDEQLKSGTASVVCLLNNFYPREAKVQWKVDNALQSGNSQESVTEQDSKDSTYSLSSTLTLSKADYEKHKVYACEVTHQGLSSPVTKSFNRGEC
modifications: linker-drug LD-14 (eribulin) on cysteine sulfhydryls of reduced disulfides; average DAR between 3.7 and 4.3
- inhibitory IC50 against the proliferation of HCC1187 cells (CellTiterGlo2) [1]: 0.014 nM
- inhibitory IC50 against the proliferation of Jeko1 cells (CellTiterGlo2) [1]: 0.018 nM
- inhibitory IC50 against the proliferation of PA-1 cells (CellTiterGlo2) [1]: 0.032 nM

B10: ADC-4 (KIH YR8/ZH3 conjugated to LD-1) (bispecific antibody, human IgG1, kappa)
heavy 1: not shown
light 1: EIVLTQSPATLSLSPGERATLSCSASSQVSYIHWYQQKPGQAPRPWIYETSKLASGIPARFSGSGSGTDYTLTISSLEPEDFAVYYCQQWNYPLITFGQGTKLEIKRTVAAPSVFIFPPSDEQLKSGTASVVCLLNNFYPREAKVQWKVDNALQSGNSQESVTEQDSKDSTYSLSSTLTLSKADYEKHKVYACEVTHQGLSSPVTKSFNRGEC
heavy 2: not shown
light 2: DIQMTQSPSAMSASVGDRVTITCKASQDIYSYLSWFQQKPGKVPKTLIYRANRLVRGVPSRFSGSGSGQEYTLTISSLQPEDMATYYCLQYDEFPYTFGQGTKLEIKRTVAAPSVFIFPPSDEQLKSGTASVVCLLNNFYPREAKVQWKVDNALQSGNSQESVTEQDSKDSTYSLSSTLTLSKADYEKHKVYACEVTHQGLSSPVTKSFNRGEC
modifications: linker-drug LD-1 (MMAE) on cysteine sulfhydryls of reduced disulfides; average DAR between 3.7 and 4.3
- inhibitory IC50 against the proliferation of HCC1187 cells (CellTiterGlo2) [1]: 1.2 nM
- inhibitory IC50 against the proliferation of Jeko1 cells (CellTiterGlo2) [1]: 46.6 nM
- inhibitory IC50 against the proliferation of PA-1 cells (CellTiterGlo2) [1]: 4.2 nM

B11: KIH YR8/ZH3, an ROR1-targeting biepitopic antibody (bispecific antibody, human IgG1, kappa)
heavy 1: not shown
light 1: EIVLTQSPATLSLSPGERATLSCSASSQVSYIHWYQQKPGQAPRPWIYETSKLASGIPARFSGSGSGTDYTLTISSLEPEDFAVYYCQQWNYPLITFGQGTKLEIKRTVAAPSVFIFPPSDEQLKSGTASVVCLLNNFYPREAKVQWKVDNALQSGNSQESVTEQDSKDSTYSLSSTLTLSKADYEKHKVYACEVTHQGLSSPVTKSFNRGEC
heavy 2: not shown
light 2: DIQMTQSPSAMSASVGDRVTITCKASQDIYSYLSWFQQKPGKVPKTLIYRANRLVRGVPSRFSGSGSGQEYTLTISSLQPEDMATYYCLQYDEFPYTFGQGTKLEIKRTVAAPSVFIFPPSDEQLKSGTASVVCLLNNFYPREAKVQWKVDNALQSGNSQESVTEQDSKDSTYSLSSTLTLSKADYEKHKVYACEVTHQGLSSPVTKSFNRGEC
notes: chain 1: YR-8-ES arm with Fc knob (T366W); chain 3: AM3-ZH3 arm with Fc hole (T366S, L368A, Y407V); made by reduction and mixing of YR-8-ES variant 1 and AM3-ZH3 variant 1
- EC50 [6]: 0.19 nM
- MFI fold [6]: 8.2 fold
- EC50 [7]: 0.41 nM
- MFI fold [7]: 7 fold

B12: YR-8-NA (antibody, human IgG1, kappa, V domains shown)
VH: QVQLQESGPGLVKPSETLSLTCTVSGFSLTRYGVHWIRQPPGKGLEWLGVIWAGGFTNYNADLKSRLTISKDNSKNQVSLKLSSVTAADTAVYYCARRGDSYSMKYWGQGTLVTVSS
VL: EIVLTQSPATLSLSPGERATLSCSASSQVSYIHWYQQKPGQAPRPWIYETSKLASGIPARFSGSGSGTDYTLTISSLEPEDFAVYYCQQWNYPLITFGQGTKLEIKR
notes: YR-8 with S61A (Kabat) in the heavy chain
- binding result [8]: binds
- Kd [9]: 14 nM

B13: ADC-6 (UC961 conjugated to LD-14) (antibody, human IgG1, kappa, V domains shown)
VH: QVQLQESGPGLVKPSQTLSLTCTVSGYAFTAYNIHWVRQAPGQGLEWMGSFDPYDGGSSYNQKFKDRLTISKDTSKNQVVLTMTNMDPVDTATYYCARGWYYFDYWGHGTLVTVSS
VL: DIVMTQTPLSLPVTPGEPASISCRASKSISKYLAWYQQKPGQAPRLLIYSGSTLQSGIPPRFSGSGYGTDFTLTINNIESEDAAYYFCQQHDESPYTFGEGTKVEIKR
modifications: linker-drug LD-14 (eribulin) on cysteine sulfhydryls of reduced disulfides; drug loading 3.7-4.3 per antibody
- inhibitory IC50 against the proliferation of HCC1187 cells (CellTiterGlo2) [1]: 0.24 nM
- inhibitory IC50 against the proliferation of Jeko1 cells (CellTiterGlo2) [1]: 2.08 nM
- inhibitory IC50 against the proliferation of PA-1 cells (CellTiterGlo2) [1]: 0.36 nM

B14: ADC-7 (UC961 conjugated to LD-1) (antibody, human IgG1, kappa, V domains shown)
VH: QVQLQESGPGLVKPSQTLSLTCTVSGYAFTAYNIHWVRQAPGQGLEWMGSFDPYDGGSSYNQKFKDRLTISKDTSKNQVVLTMTNMDPVDTATYYCARGWYYFDYWGHGTLVTVSS
VL: DIVMTQTPLSLPVTPGEPASISCRASKSISKYLAWYQQKPGQAPRLLIYSGSTLQSGIPPRFSGSGYGTDFTLTINNIESEDAAYYFCQQHDESPYTFGEGTKVEIKR
modifications: linker-drug LD-1 (MMAE) on cysteine sulfhydryls of reduced disulfides; drug loading 3.7-4.3 per antibody
- inhibitory IC50 against the proliferation of HCC1187 cells (CellTiterGlo2) [1]: 15.4 nM
- inhibitory IC50 against the proliferation of Jeko1 cells (CellTiterGlo2) [1]: 76.3 nM
- inhibitory IC50 against the proliferation of PA-1 cells (CellTiterGlo2) [1]: 15.1 nM
